Test results from publication PMC10302205, “Saccharomyces cerevisiae Δ9-desaturase Ole1 forms a supercomplex with Slc1 and Dga1” (The Journal of Biological Chemistry, 2023).

T1: Ole1-Myc-Cub-LexA-VP16 (S. cerevisiae, UniProt P21147 1-510)
T1 construct: Ole1, Δ9 acyl-CoA (stearoyl-CoA) desaturase of S. cerevisiae; the endogenous chromosomal OLE1 gene, with the tag at its carboxyl end; The tag was put behind the chromosomal gene, so the whole protein is likely; also called Δ9 acyl-CoA desaturase Ole1; Ole1-Cub-LexA-VP16; not shown: Myc, C-terminal, kept; Cub-LexA-VP16, C-terminal, kept
T1 sequence (looked up): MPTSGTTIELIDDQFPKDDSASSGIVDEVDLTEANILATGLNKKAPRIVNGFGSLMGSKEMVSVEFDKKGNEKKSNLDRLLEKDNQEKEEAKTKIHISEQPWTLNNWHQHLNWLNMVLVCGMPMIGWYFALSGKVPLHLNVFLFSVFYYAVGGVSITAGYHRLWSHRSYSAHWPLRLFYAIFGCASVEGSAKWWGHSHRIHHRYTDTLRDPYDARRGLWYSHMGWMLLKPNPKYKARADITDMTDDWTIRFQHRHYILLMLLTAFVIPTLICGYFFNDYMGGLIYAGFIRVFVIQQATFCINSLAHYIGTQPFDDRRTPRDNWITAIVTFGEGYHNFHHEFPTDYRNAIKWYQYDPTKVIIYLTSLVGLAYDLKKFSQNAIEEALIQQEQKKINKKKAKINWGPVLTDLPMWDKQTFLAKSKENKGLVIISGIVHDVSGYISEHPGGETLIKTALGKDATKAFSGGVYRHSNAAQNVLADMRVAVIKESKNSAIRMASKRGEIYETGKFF

T2: Slc1-Cub-LexA-VP16 (S. cerevisiae, UniProt P33333 1-303)
T2 construct: Slc1, lysophosphatidic acid acyltransferase of S. cerevisiae; The end of the tag is read from the order of the printed label; also called Slc1 bait (strain YBG2); pTMBV4-SLC1; not shown: Cub-LexA-VP16, C-terminal, kept
T2 sequence (looked up): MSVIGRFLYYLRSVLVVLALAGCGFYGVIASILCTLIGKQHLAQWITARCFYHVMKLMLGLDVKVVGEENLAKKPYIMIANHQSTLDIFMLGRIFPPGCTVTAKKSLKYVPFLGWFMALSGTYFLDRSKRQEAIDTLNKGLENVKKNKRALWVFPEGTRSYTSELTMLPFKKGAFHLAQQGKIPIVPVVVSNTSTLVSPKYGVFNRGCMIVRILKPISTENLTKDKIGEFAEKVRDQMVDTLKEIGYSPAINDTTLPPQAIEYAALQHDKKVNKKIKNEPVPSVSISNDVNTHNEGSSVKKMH


Key:
[1] = target: T1, Ole1-Myc-Cub-LexA-VP16; experiment: two-hybrid; integrated membrane yeast two-hybrid (split ubiquitin): Ole1-Myc-Cub-LexA-VP16 from the endogenous locus of strain YBG1 as bait, NubG fusions from plasmids as prey; growth on SD-W-H-A with 6 mM 3-aminotriazole and β-galactosidase activity of cell extracts
[2] = target: T2, Slc1-Cub-LexA-VP16; experiment: two-hybrid; membrane yeast two-hybrid (split ubiquitin): plasmid-borne Slc1-Cub-LexA-VP16 as bait and NubG fusions as prey in NMY51; growth on SD-W-L-H-A with 6 mM 3-aminotriazole and β-galactosidase activity of cell extracts; conditions: partners not purified

Binder	β-galactosidase activity, fold over Alg5-NubG [2]	β-galactosidase activity, % of wildtype Dga1 ([1]; partners not purified)	other results
NubG-Sct1 (enzyme, S. cerevisiae, UniProt P32784 1-759, looked up, Sct1, glycerophosphate acyltransferase of S. cerevisiae; also called pNubG-SCT1; pADSL-NubG-SCT1; source: yeast two-hybrid fusion (split ubiquitin prey), from plasmid pADSL-NubG-SCT1 in S. cerevisiae; not shown: NubG, N-terminal, kept) MPAPKLTEKFASSKSTQKTTNYSSIEAKSVKTSADQAYIYQEPSATKKILYSIATWLLYNIFHCFFREIRGRGSFKVPQQGPVIFVAAPHANQFVDPVILMGEVKKSVNRRVSFLIAESSLKQPPIGFLASFFMAIGVVRPQDNLKPAEGTIRVDPTDYKRVIGHDTHFLTDCMPKGLIGLPKSMGFGEIQSIESDTSLTLRKEFKMAKPEIKTALLTGTTYKYAAKVDQSCVYHRVFEHLAHNNCIGIFPEGGSHDRTNLLPLKAGVAIMALGCMDKHPDVNVKIVPCGMNYFHPHKFRSRAVVEFGDPIEIPKELVAKYHNPETNRDAVKELLDTISKGLQSVTVTCSDYETLMVVQTIRRLYMTQFSTKLPLPLIVEMNRRMVKGYEFYRNDPKIADLTKDIMAYNAALRHYNLPDHLVEEAKVNFAKNLGLVFFRSIGLCILFSLAMPGIIMFSPVFILAKRISQEKARTALSKSTVKIKANDVIATWKILIGMGFAPLLYIFWSVLITYYLRHKPWNKIYVFSGSYISCVIVTYSALIVGDIGMDGFKSLRPLVLSLTSPKGLQKLQKDRRNLAERIIEVVNNFGSELFPDFDSAALREEFDVIDEEEEDRKTSELNRRKMLRKQKIKRQEKDSSSPIISQRDNHDAYEHHNQDSDGVSLVNSDNSLSNIPLFSSTFHRKSESSLASTSVAPSSSSEFEVENEILEEKNGLASKIAQAVLNKRIGENTAREEEEEEEEEEEEEEEEEEGKEGDA			β-galactosidase activity, fold of the negative control Alg5-NubG (fold of the negative control) [1]: 2; β-galactosidase activity, fold of the negative control [2]: 3 fold of the negative control
NubG-Dga1 (full-length NubG-Dga1 fusion) (enzyme, S. cerevisiae, UniProt Q08650 1-418, looked up, Dga1, diacylglycerol acyltransferase of S. cerevisiae; DGA1 amplified from W303 genomic DNA; 418 residues by the printed ranges; also called pNubG-DGA1; pADSL-NubG-DGA1; source: yeast two-hybrid fusion (split ubiquitin prey), from plasmid pADSL-NubG-DGA1 in S. cerevisiae; not shown: NubG, N-terminal, kept) MSGTFNDIRRRKKEEGSPTAGITERHENKSLSSIDKREQTLKPQLESCCPLATPFERRLQTLAVAWHTSSFVLFSIFTLFAISTPALWVLAIPYMIYFFFDRSPATGEVVNRYSLRFRSLPIWKWYCDYFPISLIKTVNLKPTFTLSKNKRVNEKNYKIRLWPTKYSINLKSNSTIDYRNQECTGPTYLFGYHPHGIGALGAFGAFATEGCNYSKIFPGIPISLMTLVTQFHIPLYRDYLLALGISSVSRKNALRTLSKNQSICIVVGGARESLLSSTNGTQLILNKRKGFIKLAIQTGNINLVPVFAFGEVDCYNVLSTKKDSVLGKMQLWFKENFGFTIPIFYARGLFNYDFGLLPFRAPINVVVGRPIYVEKKITNPPDDVVNHFHDLYIAELKRLYYENREKYGVPDAELKIVG	17 fold over Alg5-NubG		β-galactosidase activity, fold over the negative control Alg5-NubG (fold over the negative control) [1]: 11
NubG-Dga1DEK (Dga1 D411A, E413A, K415A) (enzyme, S. cerevisiae, UniProt Q08650 1-418, looked up, Dga1 of S. cerevisiae, charged-to-alanine mutant made in pADSL-NubG-DGA1 (the full-length fusion); source: yeast two-hybrid fusion (split ubiquitin prey), synthetic DNA fragment assembled into pADSL-NubG-DGA1, in S. cerevisiae; not shown: NubG, N-terminal, kept) MSGTFNDIRRRKKEEGSPTAGITERHENKSLSSIDKREQTLKPQLESCCPLATPFERRLQTLAVAWHTSSFVLFSIFTLFAISTPALWVLAIPYMIYFFFDRSPATGEVVNRYSLRFRSLPIWKWYCDYFPISLIKTVNLKPTFTLSKNKRVNEKNYKIRLWPTKYSINLKSNSTIDYRNQECTGPTYLFGYHPHGIGALGAFGAFATEGCNYSKIFPGIPISLMTLVTQFHIPLYRDYLLALGISSVSRKNALRTLSKNQSICIVVGGARESLLSSTNGTQLILNKRKGFIKLAIQTGNINLVPVFAFGEVDCYNVLSTKKDSVLGKMQLWFKENFGFTIPIFYARGLFNYDFGLLPFRAPINVVVGRPIYVEKKITNPPDDVVNHFHDLYIAELKRLYYENREKYGVPAAALAIVG		~60 % of wildtype Dga1	
NubG-Slc1 (enzyme, S. cerevisiae, UniProt P33333 1-303, looked up, Slc1, lysophosphatidic acid acyltransferase of S. cerevisiae; 'the SLC1 open reading frame was amplified from S. cerevisiae genomic DNA'; also called pADSL-NubG-SLC1; source: yeast two-hybrid fusion (split ubiquitin prey), from plasmid pADSL-NubG-SLC1 in S. cerevisiae; not shown: NubG, N-terminal, kept) MSVIGRFLYYLRSVLVVLALAGCGFYGVIASILCTLIGKQHLAQWITARCFYHVMKLMLGLDVKVVGEENLAKKPYIMIANHQSTLDIFMLGRIFPPGCTVTAKKSLKYVPFLGWFMALSGTYFLDRSKRQEAIDTLNKGLENVKKNKRALWVFPEGTRSYTSELTMLPFKKGAFHLAQQGKIPIVPVVVSNTSTLVSPKYGVFNRGCMIVRILKPISTENLTKDKIGEFAEKVRDQMVDTLKEIGYSPAINDTTLPPQAIEYAALQHDKKVNKKIKNEPVPSVSISNDVNTHNEGSSVKKMH			β-galactosidase activity, fold over the negative control Alg5-NubG ([1]; partners not purified): 9 fold over the negative control

Now from value to binder, other results behind:

β-galactosidase activity, fold over Alg5-NubG [2]	β-galactosidase activity, % of wildtype Dga1 ([1]; partners not purified)	Binder	other results
	~60 % of wildtype Dga1	NubG-Dga1KR (Dga1 K397A, R398A) (enzyme, S. cerevisiae, UniProt Q08650 1-418, looked up, Dga1 of S. cerevisiae, charged-to-alanine mutant made in pADSL-NubG-DGA1 (the full-length fusion); source: yeast two-hybrid fusion (split ubiquitin prey), synthetic DNA fragment assembled into pADSL-NubG-DGA1, in S. cerevisiae; not shown: NubG, N-terminal, kept) MSGTFNDIRRRKKEEGSPTAGITERHENKSLSSIDKREQTLKPQLESCCPLATPFERRLQTLAVAWHTSSFVLFSIFTLFAISTPALWVLAIPYMIYFFFDRSPATGEVVNRYSLRFRSLPIWKWYCDYFPISLIKTVNLKPTFTLSKNKRVNEKNYKIRLWPTKYSINLKSNSTIDYRNQECTGPTYLFGYHPHGIGALGAFGAFATEGCNYSKIFPGIPISLMTLVTQFHIPLYRDYLLALGISSVSRKNALRTLSKNQSICIVVGGARESLLSSTNGTQLILNKRKGFIKLAIQTGNINLVPVFAFGEVDCYNVLSTKKDSVLGKMQLWFKENFGFTIPIFYARGLFNYDFGLLPFRAPINVVVGRPIYVEKKITNPPDDVVNHFHDLYIAELAALYYENREKYGVPDAELKIVG	
~10 fold over Alg5-NubG		NubG-Gpt2 (enzyme, S. cerevisiae, UniProt P36148 1-743, looked up, Gpt2, glycerophosphate acyltransferase of S. cerevisiae; also called pNubG-GPT2; pADSL-NubG-GPT2; source: yeast two-hybrid fusion (split ubiquitin prey), from plasmid pADSL-NubG-GPT2 in S. cerevisiae; not shown: NubG, N-terminal, kept) MSAPAADHNAAKPIPHVPQASRRYKNSYNGFVYNIHTWLYDVSVFLFNILFTIFFREIKVRGAYNVPEVGVPTILVCAPHANQFIDPALVMSQTRLLKTSAGKSRSRMPCFVTAESSFKKRFISFFGHAMGGIPVPRIQDNLKPVDENLEIYAPDLKNHPEIIKGRSKNPQTTPVNFTKRFSAKSLLGLPDYLSNAQIKEIPDDETIILSSPFRTSKSKVVELLTNGTNFKYAEKIDNTETFQSVFDHLHTKGCVGIFPEGGSHDRPSLLPIKAGVAIMALGAVAADPTMKVAVVPCGLHYFHRNKFRSRAVLEYGEPIVVDGKYGEMYKDSPRETVSKLLKKITNSLFSVTENAPDYDTLMVIQAARRLYQPVKVRLPLPAIVEINRRLLFGYSKFKDDPRIIHLKKLVYDYNRKLDSVGLKDHQVMQLKTTKLEALRCFVTLIVRLIKFSVFAILSLPGSILFTPIFIICRVYSEKKAKEGLKKSLVKIKGTDLLATWKLIVALILAPILYVTYSILLIILARKQHYCRIWVPSNNAFIQFVYFYALLVFTTYSSLKTGEIGVDLFKSLRPLFVSIVYPGKKIEEIQTTRKNLSLELTAVCNDLGPLVFPDYDKLATEIFSKRDGYDVSSDAESSISRMSVQSRSRSSSIHSIGSLASNALSRVNSRGSLTDIPIFSDAKQGQWKSEGETSEDEDEFDEKNPAIVQTARSSDLNKENSRNTNISSKIASLVRQKREHEKKE	
